Source: the nanobody polyreactivity screen of Harvey et al. (2022)

Assay: yeast display, Sf9 membrane polyspecificity reagent, FACS + sequencing; frameworks hold sequencing errors
Outline: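 Nanobodies came from a synthetic yeast display library in Saccharomyces cerevisiae BJ5465, induced with galactose for 36–48 hours and stained for 1 hour at 4 °C with 10% biotinylated, detergent-solubilized Sf9 membrane reagent. Cells were enriched on streptavidin microbeads and then FACS-sorted, with low and high (top ~1%) gates set on anti-HA fluorescence for expression and streptavidin fluorescence for reagent binding. Each polyreactivity label reflects the gate a clone came from. Genes were amplified by colony PCR, sequenced by MiSeq 2 × 250 and filtered by CDR length.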

Row | Sequence | polyreactivity (PSR sort gate)
1 | QVQLVESGGGLVQAGGSLRLSCAASGRIFSLYAMGWYRPAPGKERELVAAITWRGGGTYYADSVKGRITISRDNAKNTVFLQMNSLKPEDTAVYYCAAEVKHIFYGYWGQGTQVTVSS | high polyreactivity
2 | QVQLVESGGGLVQAGGSLRLSCAASGRIFSLYAMGWYRQAPGKDRELVAAISRGGSTYYADSVKGRFTISRDNAKNTVYLQMNSLKPEDTAVSYCARRYWYPDAFYRYDYWGQGTQVTVSS | low polyreactivity
3 | QVQLVESGGGLVQAGGSLRLSCAASGRIFSNNAMGWYRQAPGKERELVAAITNSGGSTYYADSVKGRFTISRDNAKNTVYLQMNSLKPEDTAVYYCNARSKVAYYRHYYWGQGTQVTVSS | low polyreactivity
4 | QVQLVESGGGLVQAGGSLRLSCAASGRIFSPNAMGWSRQAPGKERELVAAITRGGSTNYADSVKGRFTISRDNAKYTVYLQMNSLKPEDTAVYFCAALLAKTISGRGYNSWGQGTQVTVSS | low polyreactivity
5 | QVQLVESGGGLVQAGGSLRLSCAASGRIFSPYAMGWYRQAPGKERELVARISWRGSRTYYADSVKGRFTISRDNAKNTVYLQMNSLKPEDTAVYYCNAVFYRKPLRRDYWVQGTQVTVSS | high polyreactivity
6 | QVQLVESGGGLVQAGGSLRLSCAASGRIFSQNTMGWYRQAPGKERELVATITTSDGSTSYADSVKGRFTISRDNAKNTVYLQMNSLKPEDTAVYYCNARLSKYEGYWVWQYDYWGQGTQVTVSS | low polyreactivity
7 | QVQLVESGGGLVQAGGSLRLSCAASGRIFSRNAMGWYRQAPGKDRELVAAISRSGTSTYYADSGKGRFTISRDNAKNTVYLQMNSLKPEDTAVYYCAADSWSRSVNYYYWGQGTQVTVSS | low polyreactivity
8 | QVQLVESGGGLVQAGGSLRLSCAASGRIFSRNAMGWYRQAPGKERELVAAISRSGTRTNYADSVKGRFTISRDNAKYTVYLQMNSLKPEDTAVYYCATAAFIVGSSRTYDYWGQGTQVTVSS | high polyreactivity
9 | QVQLVESGGGLVQAGGSLRLSCAASGRIFSRNAMGWYRQAPRKEREFVAAISRRGTSTYYADSVKGRFTISRDNAKNTVYLQMHSLKPEDTAVYYCNAGGSPWYKPVYYRALYDYWGQGTQVTVSS | high polyreactivity
10 | QVQLVESGGGLVQAGGSLRLSCAASGRIFSRNARGWYRQATGKERELVAAITARSGTTFYADSVKGRFTISRDNAKNTVYLQMNSLKPEDTAVYYCAADGSPSLLDYWGQGTQVTVSS | high polyreactivity
11 | QVQLVESGGGLVQAGGSLRLSCAASGRIFSRYAMGWYRQAPGKERELVAAINWSGGSTYYADSVKGRFTISRDNAKNTVYLQMNSLKPEDTAVYYCAADIYPLAIGAFRDDYWGQGTQVTVSS | low polyreactivity
12 | QVQLVESGGGLVQAGGSLRLSCAASGRIFSRYAMGWYRQAPGKERELVAAITSNGGSTYYADSVKGRFTISRDNAKNTVYLQMNSLKPEDTAVYYCAAKSYWLHYDYWGQGTQVTVSS | high polyreactivity
13 | QVQLVESGGGLVQAGGSLRLSCAASGRIFSRYAMGWYRQAPGKERELVASIRSGGSTYYADSVKGRFTIARDNAKNTVYVQMNSLKPEDTAVYYCAKGTFDLHYRKRYNYWGQGTQVTVSS | low polyreactivity
14 | QVQLVESGGGLVQAGGSLRLSCAASGRIFSRYTMGCYRQAPGKERELVAAISSRGGSTYYADSVKGRFTISRDNAKNTVYLQMNSLKPEDTAVYYCNTPSYSGSSPYDHWGQGTQVTVSS | high polyreactivity
15 | QVQLVESGGGLVQAGGSLRLSCAASGRIFSSYAMGWNRQAPGKERELVAAITDGDSTNYADSVKGRFTIARDNAKNTDYFQMNSLKPEDTAVYYCAVDILWYYPPGNYYYSSYDYWGQGTQVTVSS | low polyreactivity
16 | QVQLVESGGGLVQAGGSLRLSCAASGRIFSTNAMGWYRQAPGKEREFVAAISWIGGSTYYADSVKGRFTISRDNAKNTVYLQMNSLKPEDTAVYYCAAGVYDDYPWSYDIFNLYDYWGQGTQVTVSS | low polyreactivity
17 | QVQLVESGGGLVQAGGSLRLSCAASGRIFSVNGMGWYRQAPGKERELVAAITYNGGRTYYADSVKGRITISRDNAKNTVYLQMNSLKPEDTAVYYCAVESVRHPLDWYYYWGQGTQVTVSS | low polyreactivity
18 | QVQLVESGGGLVQAGGSLRLSCAASGRIFSVYAMGWYRQAPGKEREFVAAITKGGVGTYYADSVKGRFTISRDNAKNTVYLQMNSLKPEDTAVYYCAARHYYGADRYYSWGQGTLVTVSS | high polyreactivity
19 | QVQLVESGGGLVQAGGSLRLSCAASGRIFSVYAMGWYRQAPGKEREFVASISWRGGRTYYADSVKGRFTISRDNAKNTVYLQMNSLKPEDTAVYYCNAPQRYWPPYGYWGQGTQVTVSS | high polyreactivity
20 | QVQLVESGGGLVQAGGSLRLSCAASGRIFSVYAMGWYRQAPGKERELVAAITWTGGRTYYADSVKGRFTISRDNAKNTVYLQMNSLKPEDTAVYYCNKDWGRYRYDYWGQGTQVTVSS | high polyreactivity
21 | QVQLVESGGGLVQAGGSLRLSCAASGRIFSVYGMGWYRQAPGKDRELVAAISSSAGSTNYADSVKGRFTISRDNAKNTVYLQMNSLKPEDTAVYYCAAYYRRVVYYPTAYYIRKYDYWGQGTQVTVSS | high polyreactivity
22 | QVQLVESGGGLVQAGGSLRLSCAASGRIFSVYTMGWYRQAPGKERELVAGISRGGSTDYADSVKGRFTISRDNAKNTVYLQMNSLKPEDTAVYYCAATYTYRWYQFNFWGQGTQVTVSS | high polyreactivity

Row | Sequence | polyreactivity (PSR sort gate)
23 | QVQLVESGGGLVQAGGSLRLSCAASGRIFSWYTMGWYRQAPGKERELVAGITWSGGSTYYADSVKGRFTISRDNAKNTVYLQMNSLKPEDTAVYYCAAGGVSFGYYKYYYWGQGTQVTVSS | high polyreactivity
24 | QVQLVESGGGLVQAGGSLRLSCAASGRIFSWYTMGWYRQAPGKERELVAIISRSGGSTYYADSVKGRFTISRDNAKNTVYLQMNSLKPEDTAVYYCNARWSFSYTVWVDSYWGLDDYWGQGTQVTVSS | high polyreactivity
25 | QVQLVESGGGLVQAGGSLRLSCAASGRIFSYAMGWYRQAPGKERELVAGSTYYADSVKGRFTISRDNAKNTVYLQMNSLKPEDTAVYYCNVGGYGLRGDYWGQGTQVTVSS | low polyreactivity
26 | QVQLVESGGGLVQAGGSLRLSCAASGRIFSYNAMGLYRPAPVKERELFAAITFSGGGTYYADSVKGRFTISRDNAKNTVYLQMKSLKPEDTAVYYCNKVSYGYSTYGYWGQGTQVTVSS | low polyreactivity
27 | QVQLVESGGGLVQAGGSLRLSCAASGRIFSYNAMGWYRQAPGKEREFVAAIDWRAGSTYYADSVKGRFTISRDNAKKTVYLQMNSLKPEDTAVYYCAVEFGAYPFLYYYWGQGTQVTVSS | high polyreactivity
28 | QVQLVESGGGLVQAGGSLRLSCAASGRIFSYNAMGWYRQAPGKERELVAAISYGGGRTYYADSVKGRFTISRDNAKNTVYLQMNSLKPEDTAVYYCAASQYRSPYPYRDYYTPDYDYWGQGTQVTVSS | high polyreactivity
29 | QVQLVESGGGLVQAGGSLRLSCAASGRIFSYNAMGWYRQAPGKERELVAAISYGGGRTYYADSVKGRFTISRDNAKNTVYLQMNSLKPEDTAVYYCAATSSLGDFRYDYWRQGTQVTVSS | high polyreactivity
30 | QVQLVESGGGLVQAGGSLRLSCAASGRIFSYYAMGWYRQAPGKERELVAAINWSGSSTYYADSVKGRFTISRDNAKNTVYLQMNSLKPEDTAVYYCAAGVPKNGQAGYDYWGQGTQVTVSS | high polyreactivity
31 | QVQLVESGGGLVQAGGSLRLSCAASGRIFSYYAMGWYRQAPGKERELVAAISWNGGSTYYADSVKGRFTISRDNAKNTVYLQMKSLKPEDTAVYYCAAESYFNNWRNRYDYCGQGTQVTVSS | high polyreactivity
32 | QVQLVESGGGLVQAGGSLRLSCAASGRIFSYYAMGWYRQAPGKERELVAAISWNGGSTYYADSVKGRFTISRDNAKNTVYLQMNSLKPEDTAVYYCNRLGYRTGYERDYWGQGTQVTVSS | high polyreactivity
33 | QVQLVESGGGLVQAGGSLRLSCAASGRIFSYYAMGWYRQAPGKERELVAAISYSRTYYADSVKGRFTISRDNAKNTVLLQMNSLKPEDTAVYYCNVKSKYRYGYWGQGTQVTVSS | high polyreactivity
34 | QVQLVESGGGLVQAGGSLRLSCAASGRIFSYYAMGWYRQAPGKERELVAAITWSGGRTYYADSVKGRFTISRDNAKNTVYLQMNSLKPEDTAVYYCAAQGSRWWGFDYWGQGTQVTVSS | high polyreactivity
35 | QVQLVESGGGLVQAGGSLRLSCAASGRIFSYYAMGWYRQAPGKERELVARITSRGASTYYADSVKGRFTISRDNAKNTVYLQMNSLKPEDTAVYYCATDRYRIYPDYDYWGQGTQVTVSS | high polyreactivity
36 | QVQLVESGGGLVQAGGSLRLSCAASGRIFSYYAMGWYRQAPGKERELVATINSGGSTNYADSVKRRFTISRDNAKNTVYLQMNSLKPEDTAVYYCAASPVWWSDYWGQGTQVTVSS | low polyreactivity
37 | QVQLVESGGGLVQAGGSLRLSCAASGRIFSYYAMLWYRQAPGKERELVATINSGGSTNYADSVKGRFTISRDNAKNTVYLQMNSLKPEDTAVYYCAASPVWWYDNWGQGTQVTVSS | low polyreactivity
38 | QVQLVESGGGLVQAGGSLRLSCAASGRIFSYYDMGWYRQAPGKERELVARISYSGDSTYYADSVKGRFTISRDNAKNTVYLQMNSLKPEDTAVYYCAADSITSKNQGLDYDYWGQGTQVTVSS | low polyreactivity
39 | QVQLVESGGGLVQAGGSLRLSCAASGRIFSYYDMGWYRQAPGKERELVAVISSRGGSTFYADSVKGRFTISRDNAKNTVYLLMNSLKAEDTAVYDCASRSLYVGYDYWGQCTQVTVSS | high polyreactivity
40 | QVQLVESGGGLVQAGGSLRLSCAASGRIFSYYTMGWYRQAPGKERELVAAISYRGGSTYADSVKGRFTISRDNAKNTVYLQMNSLKPEDTAVYYCAADDLSYVGYYYGYVDDDYWGQGTQVTVSS | high polyreactivity
41 | QVQLVESGGGLVQAGGSLRLSCAASGRIFTANAMGWYRQAPGKERELVAAITTSDGTYYADSVKGRFTISRDNAKNTVYLQMNSLKPEDTAVYYCATDTATYPTAMDYWGQGTQVTVSS | low polyreactivity
42 | QVQLVESGGGLVQAGGSLRLSCAASGRIFTAYAMGWYRQAPGKERELVARISKRGGSTYYADSVKGRFTISRDNAKNTVYLQMNSLKPEDTAVYYCAKSSWTFGAYNYWGQGTQVTVSS | high polyreactivity
43 | QVQLVESGGGLVQAGGSLRLSCAASGRIFTAYYAMGWYRQAPGKERELVASISSSGTSTYADSVKGRFTISRDNAKNTVYLQMNSLKPEDTAVYYCATRKLRTRRYDYGYWGQGTQVTVSS | low polyreactivity
